Data published in a protein production outcome set (Wang et al. 2014).

Assay: label from the status in PepcDB records
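Note: failed if final PepcDB status was selected cloned or expressed and not failed if soluble or beyond.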

Sequence	protein production
TSTFYELFPKTFPKKLPIWTIDQSRLRKEYRQLQAQHHPDMAQQGSEQSSTLNQAYHTLKDPLRRSQYMLKLLRNI	failed
TTESLYAFSRKLAGTAALDDVLWATAYQIALMLKVRVVLLLPEQGRIAVKAGYPPEDQLDPADLAAANWAWENDRVAGRGSDTLPGAKRLFLPMRTGRGPIGVIGIDDDRAGALLTPDQRRLLDALTDQGALAIERVHLVEDMDRVKR	failed
TTHKFEHPLNEKTRIYLRVESLLRQAHLASGFADNHQYQLFFRALFDMVEIFEQIQLKSELAKDLEKQRLSYRHWLNVEGVDQEALNSLLNEIDVVHSQLMGAERFGQALKEDRFLSSIRQRFNLPGGSCCFDLPALHYWLHLPIERKKHDANQWQKSLKPLSDALTLWLKLARETGHFKAQIARAGFFQSDADEANILRLHIPMKYGVYPMISGHKNRFAIKFMAFENGQACSQDVEFELAVC	not failed
TVGILWVNWDSHVRYANRAAEEMLGYPAGGVIDRPLIDFEPNLHMDRWLNLWKRARASEEGVQSFETQCVRADGSILPADVSLSFLRFRDSEYLVVYLNDV	failed
TVVNDPSCESVVTTPQHSLRDANSPAGLLSIAEETLAEFLSKATGTAVDWVQMPGMKPGPDSVGIFAISQRCNGVAARACGLVSLEPMKIAEILKDRPSWFRDCRSLEVFTMFPAGNGGTIELVYMQTYAPTTLAPARDFWTLRYTTSLDNGSFVVCERSLSGSGAGPNAASASQFVRAEMLSSGYLIRPCDGGGSIIHIVDHLNLEAWSVPDVLRPLYESSKVVAQKMTISALRYIRQLAQESNGEVVYGLGRQPAVLRTFSQRLSRGFNDAVNGFGDDGWSTMHCDGAEDIIVAINSTKHLTNISNSV	not failed
VAASWREQFIRAEQTHWDAVTETASETYWEGGVLSDVTALAPDPATLFISNSMPIRDMDRFGGPRDADLTVLGNRGASGIDGITSTALGAGSATSDPLVLVTGDLAYYHDMNGLLALGRCAVDATVVLLNNDGGGIFHMLPIEDHPTFEDQFRTPHGLDFEPTEALYSLQFERVADRRQFRERFAESVQTDGTQVIEVRFDAGDSHAVRDQLTE	failed
VDEKALKHITEMGFSKEASRQALMDNGNNLEAALNVLLTSNKQKPVMGPP	not failed
VDICNHALLVGYGRVGSLLGEKLLASDIPLVVIETSRTRVDELRERGVRAVLGNAANEEIMQLAHLECAKWLILTIPNGYEAGEIVASARAKNPDIEIIARAHYDDEVAYITERGANQVVMGEREIARTMLELLETPPAGEVVTR	not failed
VDKVDSREEKITEKFDEPATYIEDAEQLEGEETLVTPGTQGERTVTRKIVTVNGVETANEVVNEEIITPGVAATIKRGAKK	failed
VDQLFFSTTDAQGRIQETNNTFVELSRYTEEELRNAAHNIIRHPFMPGGVFKIMWDKLQRGETFAGYVRNLAHSGETYDVFATVTPIPGTHD	failed
VDRDYLQSEYGVLKAGQCYKVVRSFRDYRNINYERGDVMRFLGSNFVPYESGLSLFFDKNGSERQIMLCVRPEFQMEIAHHLDSYFCKLDDN	not failed
VDWTDAERSAIVGLWGKISVDEIGPQALARLLIVSPWTQRHFSTFGNLSTPAAIMGNPAVAKHGKTVMHGLDRAVQNLDDIKNTYATLSVMHSEKLHVDPDNFRLLADCITVCVAAKLGPAVFSADTQEAFQKFLAVVVSALGRQYH	not failed
VELLQVDADLQAEIVGKYNADLQKAVQIEEKKAREIATEAVKEHVTAEYEERYAEHEEHDRIMRDVAEILEQMEHAEVRRLITEDKVRPD	not failed
VFGVKEWECEVLSNKNVSTFIKEFVVKLPEGETMNFKSGSYAQIKIPKYNIRYADYDIQDRFRGDWDKMDAWSLTCKNEEETVRAYSMANYPAEGNIITLNVRIATPPFDRAANKWKAGIKPGISSSYIFSLKPGDKVMMSGPYGDFHIQDTDAEMLYIGGGAGMAPLRAQILHLFRTLKTGRKVSYWYGARSKNEIFYEEDFREIEREFPNFKFHIALSDPQPEDNWTGYVGFIHQVIYDNYLKDHDAPEDIEYYMCGPGPMANAVKGMLENLGVPRNMLFFDDFG	not failed
VGFAPELYCGLENCYDVLEVNREEFDKQKLAKAYRALARKHHPDRVKNKEEKLLAEERFRVIATAYETLKDDEAKTNYDYYLDHPDQRFYNYYQY	not failed
VGFLMFGNLLRECGVLDRLSQTAQNELVNIISILLGLTISIKMQADLFLNVQTL	failed
VGGFTWDLSANLSSVANKIISLPYNGIENNRVGGYEVAVGKGTNATKWIAGRQEGGKLGEMVAYKQNHIFKSWDDVKEHANMMIDEVANLYGPGLASEYAGKEGWKPIEPGDVCWEDINGDNKINGLDREVVGNIFPKVTGGFSSTLSWKGISLYARFDYALGHTLYNDLAARTLGQYQGAFNIITEVKDMWSEDNPNSDLPAFYYADQLAKKNITRSNNASASRHNNSSRLYEKADYLALRELTLSWDLPKAWTSKAFIQNASVYVTGQNLFYVTGYTGTSPEPVLTNSDNNENLYGVDQGRYPTPRTVLFGLSVTF	failed
VGKEKAEVELLQVDVDLQADIVAKYNAQLQKAVQVEEKKAREAATEAVKEMVKAEYEERYAEDENLATIMRDVAEILEQMEHAEVRRLITEDKIRPDGRKIDEIRP	failed
VHVLIRPLQAQDREREKAFIERLSPESRHFRFLCQLREPGEAMLDQLMKVDQDRQAAYVALAHVDGELQEVGISRYATASGKDECECAVTVMDSWQHHGLGRLLLKHLIDHARAKGLRQMYSVDAAANQAMRELAKAAGFTT	failed

Sequence	protein production
VKDVRKIQFMPMERHNTELLSLVDNLPDPVFAIDLKGAVDMANMSALSLLGLHKQEVIGTQIGALLPSVRFSRWSEGVNARTRENLVIDGLDYILELMPVY	failed
VKRFWENVGKPNDTTDGRGTTSLAMTPISQTPGLLAEAMVDLGAIEHNVRVLREHAGHAQLMAVVKADGYGHGATRVAQTALGAGAAELGVATVDEALALRADGITAPVLAWLHPPGIDFGPALLADVQVAVSSLRQLDELLHAVRRTGRTATVTVKVDTGLNRNGVGPAQFPAMLTALRQAMAEDAVRLRGLMSHMVYADKPDDSINDVQAQRFTAFLAQAREQGVRFEVAHLSNSSATMARPDLTFDLVRPGIAVYGLSPVPALGDMGLVPAMTVKCAVALVKSIRAGEGVSYGHTWIAPRDTNLALLPIGYADGVFRSLGGRLEVLINGRRCPGVGRICMDQFMVDLGPGPLDVAEGDEAILFGPGIRGEPTAQDWADLVGTIHYEVVTSPRGRITRTYREAENR	not failed
VKRKGVEVIIALDISNSMLAQDVQPSRLEKAKRLISRLVDELDNDKVGMIVFAGDAFTQLPITSDYISAKMFLESISPSLISKQGTAIGEAINLATRSFTPQEGVGRAIIVITDGENHEGGAVEAAKAAAEKGIQVSVLGVGMPEGAPIPVEGTNDYRRDREGNVIVTRLNEGMCQEIAKDGKGIYVRVDNSNSAQKAISQEISKMAKSDVE	not failed
VLAPVVPGKALEFPQDFGAHNDFRIEWWYVTGWLETPTGKPLGFQITFFRTATEIDRDNPSHFAPDQLIIAHVALSDPAIGKLQHDQKIARAGFDLAYARTGNTDVKLDDWIFVRETDGRYRTRIEAEDFTLTFILTPSQPLMLQGENGFSRKGPGAPQASYYYSEPHLQVSGIINRQGEDIPVTGTAWLDREWSSEYLDPNAAGWDWISANLDDGSALMAFQIRGKDDSKIWAYAALRDASGHTRLFTPDQVSFHPIRTWRSARTQAVYPVATRVLTGETEWQITPLMDDQELDSRASAGAVYWEGAVTFTRDGQPAGRGYMELTGYVRPLSM	not failed
VPGILMCEIFIRANQRSYSVQARSLRLHGVATSVRLEQLFWDVLEEIAARDGMRVTQLIERLYDELVQYRGEAANFTSFLRVCCLRYQVLQAEGRIPADATVPIRSLDAQAVLRGLPANLYDSR	not failed
VPKIVDHDERRRALADAVLALIAREGISAVTTRAVAEESGWSTGVLNHYFGSRHELLLAALRRAGDIQGDRYRTILDEEGAGPIEKLRNITASILPLDERRLAMTRVFLFFYAEGAAEETARGEIAAFLARWRGVVRESVVAAQREGTVSTDLDADAVTVALVALTDGLALQAILDPVVMKAISAEDAAARCVDAAVRRTTEEAGAVGR	not failed
VQFSLLHSKFHLCSVATRALLLSTYIKFINLFPETKATIQGVLRAGSQLRNADVELQQRAVEYLTLSSVASTDVLATVLEEMPPFPERESSILAKLKRKKGPGAGSALDDGRRDPSSNDINGGME	failed
VQLVRLLEEKIKSLQIEIENLRKELNYYKAEMEKMLSPPLIEAVVLDVLPDGRVLVRSSSGPNLVVNIASHIDQKLIKPGISVALNQRGSTILEVLPQKEDPIVKTMEIIERPN	not failed
VRISRPDVLLNIHIAQTTCTLSLDSSGESLHRRGYRQEAVEAPLNEVLAAGMILMTGWKGECDLIDPMCGSGTIPIEAALIARNIAPGVFRKEFAFEKWGDFDQNLFDRIYNDDSQEREFTHKIYGYDNNPKANEIATHNVKAAGVSKDIILKLQPFQQFEQPAEKSIIITNPPYGERISTNDLLGLYNMIGERLKHAFVGNDAWILSYREECFDQIGLKPSVKTPLFNGPLECEFRKYQIFDGKY	failed
VRRIKLGSQGLEVSAQGLGCMGLSAFYGTPKPETEAIALIHHAIHSGVTFLDTSDIYGPETNELLLSKALKDGVREKVELATKYGIRYAEGKVEFKGDPAYVRAACEASLMRVDVACIDLYYQHRIDTRVPIEITIGELKKLVEEGKIKYIGLSEASASTIRRAHAVHPITALQIEWSLWSRDVEEDIIPTCRELGIGIVAYSPLGRGFFASGPKLVENLDNNDVRKTLPRFQQENLDHNKILFEKVSAMSEKKGCTPAQLALAWVHHQGDDVCPIPGTTKIENLNQNIGALSVKLTPEEMSELESLAQP	failed
VRSQVLKYMVPGARVIRGLDWKWRDQDGSPQGEGTVTGELHNGWIDVTWDAGGSNSYRMGAEGKFDLKLAPGY	not failed
VSDMNGLGFKPFDLVIPFAVRKGEITGEVHMPSGKTATPEIVDNKDGTVTVRYAPTEVGLHEMHIKYMGSHIPESPLQFYVNYPNSGS	not failed
VSDPLHVTFVCTGNICRSPMAEKMFAQQLRHRGLGDAVRVTSAGTGNWHVGSCADERAAGVLRAHGYPTDHRAAQVGTEHLAADLLVALDRNHARLLRQLGVEAARVRMLRSFDPRSGTHALDVEDPYYGDHSDFEEVFAVIESALPGLHDWVDERLARNGPS	not failed
VSKAVQYMAKRRIGALIVFEKETGLQDYIETGIAMDSNISQELLINVFIPNTPLHDGAMIIQGTKIAAAASYLPLSDSPKISKSLGTRHRAAVGISEVSDAFTVIVSEETGDISVTFDGKLRRDISNEIFEELLAEHWFGTRFQKKGVK	failed
VSKAVQYMAKRRIGALIVFEKETGLQDYIETGIPMNSDISQELLTNVFIPNTPLHDGAMIIQGSKIAVAASYLPLSDSVKISKSLGTRHRAAVGISEVSDAFTVVVSEETGDISVTFDGKLRRDISKDVFEELLAEHWFGAHFQKKGVNS	not failed
VSRDENSWLIDGATPLEEVTRVLDIAYFPDEENYETISGFMMYMLRKIPKKTDSVVYGKYKFEVIDTENFKIDQILVSLVKEQE	not failed
VVIQFYEERLTWHTGSGNGNGNTNSVNLGSSGGLGSVGGSGAGDDTAPGSVGTTGGGSNIDGGDEEDPEPASPIGSINQDENIKPDESSELDNGQPDADD	failed
VVNDEWLSILGLSRQDITNHISDWDGLIHPNDDQFMKKTVQTHILSGKNYVVEFRMKHADGRWVWIQGSGSVIEYDENTHEPVRLCGTHQDITVRK	failed
